Sequences and labels used below:
B1: POU domain, class 3, transcription factor 2, residues 262 to 338; numbered along this chain, P20265 (parent)
chain: EDTPTSDDLEQFAKQFKQRRIKLGFTQADVGLALGTLYGNVFSQTTICRFEALQLSFKNMCKLKPLLNKWLEEADSS

± gives the uncertainty stated by the source.

Data on 36 variants can be found in the Human Domainome abundance scans (Beltran et al. 2025).

The variants in this data set derive from B1. In words: abundance fitness (aPCA) (normalised: wild type 0, dead -1); higher = more abundant; growth selection in yeast, the domain comes from the species named. Particulars: Homo sapiens.
As for EDTPTSDDLEQFAKQFKQRRIKLGFTQADVGLALGTLYGNVFSQTTICRFEALQLSFKNMCKDKPLLNKWLEEADSS [L63D], the abundance fitness was -0.785 ± 0.11.
On to EDTPTSDDLEQFAKQFKQRRIKLGFTQADVGLALGTLYGNVFSQTTICRFEALQLSFKNMCKSKPLLNKWLEEADSS [L63S], for which the abundance fitness is -0.668 ± 0.059.
As for EDTPTSDDLEQFAKQFKQRRIKLGFTQADVGLALGTLYGNVFSQTTICRFEALQLSFKNMCKAKPLLNKWLEEADSS [L63A], the abundance fitness is -0.665 ± 0.051.
The figure for EDTPTSDDLEQFAKQFKQRRIKLGFTQADVGLALGTLYGNVFSQTTICRFEALQLSFKNMCKMKPLLNKWLEEADSS [L63M] is 0.004 ± 0.045; for EDTPTSDDLEQFAKQFKQRRIKLGFTQADVGLALGTLYGNVFSQTTICRFEALQLSFKNMCKWKPLLNKWLEEADSS [L63W] it is -0.489 ± 0.037.
Consider EDTPTSDDLEQFAKQFKQRRIKLGFTQADVGLALGTLYGNVFSQTTICRFEALQLSFKNMCKHKPLLNKWLEEADSS [L63H], for which the abundance fitness is -0.451 ± 0.11.
The figure for EDTPTSDDLEQFAKQFKQRRIKLGFTQADVGLALGTLYGNVFSQTTICRFEALQLSFKNMCKTKPLLNKWLEEADSS [L63T] is -0.524 ± 0.061; for EDTPTSDDLEQFAKQFKQRRIKLGFTQADVGLALGTLYGNVFSQTTICRFEALQLSFKNMCKKKPLLNKWLEEADSS [L63K] it is -0.749 ± 0.14.
The figure for EDTPTSDDLEQFAKQFKQRRIKLGFTQADVGLALGTLYGNVFSQTTICRFEALQLSFKNMCKFKPLLNKWLEEADSS [L63F] is -0.347 ± 0.082; for EDTPTSDDLEQFAKQFKQRRIKLGFTQADVGLALGTLYGNVFSQTTICRFEALQLSFKNMCKRKPLLNKWLEEADSS [L63R] it is -0.794 ± 0.048; for EDTPTSDDLEQFAKQFKQRRIKLGFTQADVGLALGTLYGNVFSQTTICRFEALQLSFKNMCKCKPLLNKWLEEADSS [L63C] it is -0.399 ± 0.05.
Take EDTPTSDDLEQFAKQFKQRRIKLGFTQADVGLALGTLYGNVFSQTTICRFEALQLSFKNMCKQKPLLNKWLEEADSS [L63Q]: the abundance fitness was -1.03 ± 0.18.
In the case of EDTPTSDDLEQFAKQFKQRRIKLGFTQADVGLALGTLYGNVFSQTTICRFEALQLSFKNMCKGKPLLNKWLEEADSS [L63G] it was -0.796 ± 0.041; in that of EDTPTSDDLEQFAKQFKQRRIKLGFTQADVGLALGTLYGNVFSQTTICRFEALQLSFKNMCKIKPLLNKWLEEADSS [L63I], -0.148 ± 0.073.
Regarding EDTPTSDDLEQFAKQFKQRRIKLGFTQADVGLALGTLYGNVFSQTTICRFEALQLSFKNMCKEKPLLNKWLEEADSS [L63E], the abundance fitness was -0.803 ± 0.09.
The figure for EDTPTSDDLEQFAKQFKQRRIKLGFTQADVGLALGTLYGNVFSQTTICRFEALQLSFKNNCKLKPLLNKWLEEADSS [M60N] is -0.561 ± 0.33; for EDTPTSDDLEQFAKQFKQRRIKLGFTQADVGLALGTLYGNVFSQTTICRFEALQLSFKNLCKLKPLLNKWLEEADSS [M60L] it is -0.282 ± 0.039; for EDTPTSDDLEQFAKQFKQRRIKLGFTQADVGLALGTLYGNVFSQTTICRFEALQLSFKNHCKLKPLLNKWLEEADSS [M60H] it is -0.367 ± 0.17.
The figure for EDTPTSDDLEQFAKQFKQRRIKLGFTQADVGLALGTLYGNVFSQTTICRFEALQLSFKNYCKLKPLLNKWLEEADSS [M60Y] is -0.624 ± 0.15.
The figure for EDTPTSDDLEQFAKQFKQRRIKLGFTQADVGLALGTLYGNVFSQTTICRFEALQLSFKNSCKLKPLLNKWLEEADSS [M60S] is -0.377 ± 0.055.
EDTPTSDDLEQFAKQFKQRRIKLGFTQADVGLALGTLYGNVFSQTTICRFEALQLSFKNGCKLKPLLNKWLEEADSS [M60G]: the abundance fitness was -0.543 ± 0.035.
In the case of EDTPTSDDLEQFAKQFKQRRIKLGFTQADVGLALGTLYGNVFSQTTICRFEALQLSFKNVCKLKPLLNKWLEEADSS [M60V] it was -0.553 ± 0.043; in that of EDTPTSDDLEQFAKQFKQRRIKLGFTQADVGLALGTLYGNVFSQTTICRFEALQLSFKNWCKLKPLLNKWLEEADSS [M60W], -0.625 ± 0.071; in that of EDTPTSDDLEQFAKQFKQRRIKLGFTQADVGLALGTLYGNVFSQTTICRFEALQLSFKNTCKLKPLLNKWLEEADSS [M60T], -0.337 ± 0.054.
With EDTPTSDDLEQFAKQFKQRRIKLGFTQADVGLALGTLYGNVFSQTTICRFEALQLSFKNRCKLKPLLNKWLEEADSS [M60R], the abundance fitness is -0.706 ± 0.047.
Regarding EDTPTSDDLEQFAKQFKQRRIKLGFTQADVGLALGTLYGNVFSQTTICRFEALQLSFKNECKLKPLLNKWLEEADSS [M60E], the abundance fitness was -0.848 ± 0.079.
Turning to EDTPTSDDLEQFAKQFKQRRIKLGFTQADVGLALGTLYGNVFSQTTICRFEALQLSFKNICKLKPLLNKWLEEADSS [M60I], the abundance fitness was -0.907 ± 0.29.
In the case of EDTPTSDDLEQFAKQFKQRRIKLGFTQADVGLALGTLYGNVFSQTTICRFEALQLSFKNDCKLKPLLNKWLEEADSS [M60D] it was -0.961 ± 0.2; in that of EDTPTSDDLEQFAKQFKQRRIKLGFTQADVGLALGTLYGNVFSQTTICRFEALQLSFKNFCKLKPLLNKWLEEADSS [M60F], -0.373 ± 0.13; in that of EDTPTSDDLEQFAKQFKQRRIKLGFTQADVGLALGTLYGNVFSQTTICRFEALQLSFKNKCKLKPLLNKWLEEADSS [M60K], -0.97 ± 0.18.
With EDTPTSDDLEQFAKQFKQRRIKLGFTQADVGLALGTLYGNVFSQTTICRFEALQLSFKNQCKLKPLLNKWLEEADSS [M60Q], the abundance fitness is -0.546 ± 0.095.
In the case of EDTPTSDDLEQFAKQFKQRRIKLGFTQADVGLALGTLYGNVFSQTTICRFEALQLSFKNMCKLGPLLNKWLEEADSS [K64G] it was -0.449 ± 0.037.
As to EDTPTSDDLEQFAKQFKQRRIKLGFTQADVGLALGTLYGNVFSQTTICRFEALQLSFKNMCKLFPLLNKWLEEADSS [K64F], the abundance fitness is -0.264 ± 0.1.
For EDTPTSDDLEQFAKQFKQRRIKLGFTQADVGLALGTLYGNVFSQTTICRFEALQLSFKNMCKLAPLLNKWLEEADSS [K64A], the abundance fitness is -0.06 ± 0.035.
In the case of EDTPTSDDLEQFAKQFKQRRIKLGFTQADVGLALGTLYGNVFSQTTICRFEALQLSFKNMCKLEPLLNKWLEEADSS [K64E] it was -0.3 ± 0.046; in that of EDTPTSDDLEQFAKQFKQRRIKLGFTQADVGLALGTLYGNVFSQTTICRFEALQLSFKNMCKLDPLLNKWLEEADSS [K64D], -1.06 ± 0.23.
